Results reported in US20210363269A1 (ALX ONCOLOGY, published 2021).

T1: NOD mouse SIRP-α (mouse (NOD strain))
T1 chain: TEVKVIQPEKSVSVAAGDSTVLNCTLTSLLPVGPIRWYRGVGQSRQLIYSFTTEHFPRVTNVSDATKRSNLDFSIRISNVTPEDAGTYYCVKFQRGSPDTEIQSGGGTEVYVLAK

T2: BL6 mouse SIRP-α (mouse (C57BL/6 strain), UniProt P97797 32-148)
T2 construct: also called C57BL/6
T2 sequence: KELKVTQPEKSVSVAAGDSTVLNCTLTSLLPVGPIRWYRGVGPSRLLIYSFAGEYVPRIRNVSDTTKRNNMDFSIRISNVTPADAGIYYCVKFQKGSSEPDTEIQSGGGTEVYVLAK

T3: BALBc mouse SIRP-α (mouse (BALB/c strain))
T3 chain: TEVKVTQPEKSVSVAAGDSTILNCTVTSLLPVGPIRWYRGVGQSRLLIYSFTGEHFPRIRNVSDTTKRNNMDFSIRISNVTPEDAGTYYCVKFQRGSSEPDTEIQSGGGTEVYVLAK

T4: C57BL/6 mouse SIRP-α D1 domain (mouse (C57BL/6 strain), UniProt P97797 32-148)
T4 sequence: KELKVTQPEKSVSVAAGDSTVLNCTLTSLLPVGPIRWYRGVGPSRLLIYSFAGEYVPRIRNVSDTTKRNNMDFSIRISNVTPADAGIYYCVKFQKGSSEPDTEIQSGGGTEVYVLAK

T5: BALB/c mouse SIRP-α D1 domain (mouse (BALB/c strain))
T5 chain: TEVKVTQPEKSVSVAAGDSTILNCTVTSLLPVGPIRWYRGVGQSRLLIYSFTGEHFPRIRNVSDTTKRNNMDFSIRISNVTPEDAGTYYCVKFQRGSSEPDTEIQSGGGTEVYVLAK

T6: mouse 129 SIRP-α D1 domain (mouse (129 strain), UniProt P97797 32-150)
T6 construct: also called m129
T6 chain: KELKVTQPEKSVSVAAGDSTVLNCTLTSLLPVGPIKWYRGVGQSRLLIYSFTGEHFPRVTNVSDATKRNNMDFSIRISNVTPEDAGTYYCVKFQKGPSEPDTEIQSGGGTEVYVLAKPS

T7: NOD mouse SIRP-α D1 domain (mouse (NOD strain))
T7 chain: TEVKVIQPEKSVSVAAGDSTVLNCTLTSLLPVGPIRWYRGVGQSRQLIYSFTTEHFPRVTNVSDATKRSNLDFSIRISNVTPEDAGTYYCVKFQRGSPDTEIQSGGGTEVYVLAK


Legend:
[1] = target: T8, human SIRP-α v1 (human, UniProt P78324 31-149); assay: SPR, antibody on GLC chip
T8 construct: also called Human v1; Human V1
Method in brief: (§1)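 On a ProteOn XPR36 biosensor, Protein A-purified antibodies were amine-coupled to a GLC chip at about ~1000 RU after dilution to 80 nM in 10 mM sodium acetate pH 4.5. SIRP analytes at 100, 33, 11, 3.7, 1.2 and 0 nM were then injected one-shot in PBS pH 7.4 containing 0.01% Tween-20 at 25° C, with 90 s of association at 100 μL/min and 1200 s of dissociation. The dissociation constant (KD) was calculated as kd/ka from a global Langmuir fit of double-referenced data.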

[2] = target: T9, human SIRP-α v2 (human); assay: SPR, antibody on GLC chip
T9 construct: also called Human v2; Human V2
Method in brief: as §1

[3] = target: T1, NOD mouse SIRP-α; assay: SPR, antibody on GLC chip
Method in brief: as §1

[4] = target: T2, BL6 mouse SIRP-α; assay: SPR, antibody on GLC chip
Method in brief: as §1

[5] = target: T3, BALBc mouse SIRP-α; assay: SPR, antibody on GLC chip
Method in brief: as §1

[6] = target: T10, human SIRPγ isoform 1 (human, UniProt Q9P1W8 29-147); assay: SPR, antibody on GLC chip
T10 construct: also called Gamma; Human SIRPg
Method in brief: as §1

[7] = target: T4, C57BL/6 mouse SIRP-α D1 domain; assay: SPR, ProteOn, antibody on chip
Method: (§2) All experiments were performed at 25° C. using a SPR-based ProteOn XPR36 biosensor (BioRad, Inc, Hercules, Calif.) equipped with GLC or NLC sensor chips. […] Purification was carried out by standard Protein A affinity column chromatography and eluted antibodies were stored in PBS buffer.
(§3) The running buffer was PBS pH 7.4 with 0.01% Tween-20 (PBST+). All analytes were used at their nominal concentrations as determined by A280 Absorbance and using their molar calculated extinction coefficient.
(§4) For the method using GLC chip, the analytes were injected and flowed over anti-SIRPα antibodies immobilized (˜1000 RUs) on GLC chips using Proteon™ Amine Coupling Kit. For the immobilization step, GLC chip was activated with EDAC/Sulpho-NHS 1:1 (Biorad) diluted 1/100 for 300 s at 25 μL/min. Anti-SIRPα antibodies were diluted to 80 nM concentration in 10 mM sodium acetate buffer pH 4.5 and immobilized to the chip at 30 μL/min for 50 s. Chip was inactivated with ethanolamine for 300 s at 25 μL/min. The analytes (e.g., SIRP-α from different species, SIRP-β, SIRP-γ) were injected in a “one-shot” kinetic mode at nominal concentrations of 100, 33, 11, 3.7, 1.2 and 0 nM. Association times were monitored for 90 s at 100 μL/min, and dissociation times were monitored for 1200 s. The surfaces were regenerated with a 2:1 v/v blend of Pierce IgG elution buffer/4M NaCl.

[8] = target: T5, BALB/c mouse SIRP-α D1 domain; assay: SPR, ProteOn, antibody on chip
Method: as §2, §3, §4

[9] = target: T6, mouse 129 SIRP-α D1 domain; assay: SPR, ProteOn, antibody on chip
Method: as §2, §4
(§5) Next, the binding kinetics of various antibody clones to selected mouse SIRP-α proteins were determined as described above. Mouse proteins that were tested include BALBc (SEQ ID NO:10), BL6 (SEQ ID NO:9), NOD (SEQ ID NO:8), and m129 (SEQ ID NO:7) SIRP-α proteins. Antibody clones labeled as “c” were tested as full-length mouse IgG2a antibodies; antibody clones labeled as “a” were tested as full-length human IgG1 antibodies with L234A, L235A, G237A, and N297A mutations.

[10] = target: T7, NOD mouse SIRP-α D1 domain; assay: SPR, ProteOn, antibody on chip
Method: as §2, §4, §5

T9 sequence (chain, as listed by the source limits assumed): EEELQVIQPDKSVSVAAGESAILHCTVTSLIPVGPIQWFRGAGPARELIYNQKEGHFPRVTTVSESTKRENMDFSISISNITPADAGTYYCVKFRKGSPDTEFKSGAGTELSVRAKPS
T8 sequence (P78324 31-149 limits assumed): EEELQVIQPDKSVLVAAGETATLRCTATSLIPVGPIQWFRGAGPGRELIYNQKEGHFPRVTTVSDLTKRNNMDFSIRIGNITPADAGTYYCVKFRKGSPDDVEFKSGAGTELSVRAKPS
T10 sequence (Q9P1W8 29-147 limits assumed): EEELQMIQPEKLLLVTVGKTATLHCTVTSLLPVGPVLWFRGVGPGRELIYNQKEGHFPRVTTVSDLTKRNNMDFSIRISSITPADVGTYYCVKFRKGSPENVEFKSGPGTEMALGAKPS

Kd [1] [nM]	Kd [2] [nM]	Kd [3] [nM]	Kd [4] [nM]	Kd [5] [nM]	Kd [6] [nM]	Kd [7] [nM]	koff [7] [s⁻¹]	kon [7] [M⁻¹ s⁻¹]	Kd [8] [nM]	koff [8] [s⁻¹]	kon [8] [M⁻¹ s⁻¹]	Kd [9] [nM]	koff [9] [s⁻¹]	kon [9] [M⁻¹ s⁻¹]	Kd [10] [nM]	koff [10] [s⁻¹]	kon [10] [M⁻¹ s⁻¹]	Binder
7.28	17.4	4.12	32.6	2.8	19.6													antibody 136 variant, light chain Mut / heavy chain wt (antibody, V domains shown) VH: not shown VL: EIVLTQSPGTLSLSPGERATLSCRASQSVYTYLAWYQQKPGQAPRLLIYGASSRATGIPDRFSGSGSGTEFTLTISSLQSEDFAVYYCQQYYDRPPLTFGGGTKVEIK
7.29	19.5	5.21	31.7	3.14	1.68													antibody 136 variant, light chain Mut / heavy chain Mut (antibody, V domains shown) VH: EVQLVESGGGVVQPGRSLRLSCAASGFTFSSYDVNWVRQAPGKGLEWVSLISGSGEIIYYADSVKGRFTISRDNSKNTLYLQMNSLRAEDTAVYYCAKENNRYRFFDDWGQGTLVTVSS VL: EIVLTQSPGTLSLSPGERATLSCRASQSVYTYLAWYQQKPGQAPRLLIYGASSRATGIPDRFSGSGSGTEFTLTISSLQSEDFAVYYCQQYYDRPPLTFGGGTKVEIK
4.88	10.5	2.85	16.3	2.09	66.7													antibody 136 variant, light chain Mut_S12T / heavy chain Mut (antibody, V domains shown) VH: EVQLVESGGGVVQPGRSLRLSCAASGFTFSSYDVNWVRQAPGKGLEWVSLISGSGEIIYYADSVKGRFTISRDNSKNTLYLQMNSLRAEDTAVYYCAKENNRYRFFDDWGQGTLVTVSS VL: EIVLTQSPGTLTLSPGERATLSCRASQSVYTYLAWYQQKPGQAPRLLIYGASSRATGIPDRFSGSGSGTEFTLTISSLQSEDFAVYYCQQYYDRPPLTFGGGTKVEIK
6.18	12.5	5.98	33.1	2.98	19.3													antibody 136 variant, light chain Mut_Q38E / heavy chain Mut (antibody, V domains shown) VH: EVQLVESGGGVVQPGRSLRLSCAASGFTFSSYDVNWVRQAPGKGLEWVSLISGSGEIIYYADSVKGRFTISRDNSKNTLYLQMNSLRAEDTAVYYCAKENNRYRFFDDWGQGTLVTVSS VL: EIVLTQSPGTLSLSPGERATLSCRASQSVYTYLAWYQEKPGQAPRLLIYGASSRATGIPDRFSGSGSGTEFTLTISSLQSEDFAVYYCQQYYDRPPLTFGGGTKVEIK
4.99	8.28	2.44	13.3	1.64	61.7													antibody 136 variant, light chain Mut_S22T / heavy chain Mut (antibody, V domains shown) VH: EVQLVESGGGVVQPGRSLRLSCAASGFTFSSYDVNWVRQAPGKGLEWVSLISGSGEIIYYADSVKGRFTISRDNSKNTLYLQMNSLRAEDTAVYYCAKENNRYRFFDDWGQGTLVTVSS VL: EIVLTQSPGTLSLSPGERATLTCRASQSVYTYLAWYQQKPGQAPRLLIYGASSRATGIPDRFSGSGSGTEFTLTISSLQSEDFAVYYCQQYYDRPPLTFGGGTKVEIK

The next lines start with the binder.

Binder	Kd [1] [nM]	Kd [2] [nM]	Kd [3] [nM]	Kd [4] [nM]	Kd [5] [nM]	Kd [6] [nM]	Kd [7] [nM]	koff [7] [s⁻¹]	kon [7] [M⁻¹ s⁻¹]	Kd [8] [nM]	koff [8] [s⁻¹]	kon [8] [M⁻¹ s⁻¹]	Kd [9] [nM]	koff [9] [s⁻¹]	kon [9] [M⁻¹ s⁻¹]	Kd [10] [nM]	koff [10] [s⁻¹]	kon [10] [M⁻¹ s⁻¹]
AB21c (antibody, mouse IgG2a, V domains shown, Full-length mouse IgG2a) VH: DVQLVESGGGVVRPGESLRLSCAASGFTFSSNAMSWVRQAPGKGLEWLAGISAGGSDTYYPASVKGRFTISRDNSKNTLYLQMNTLTAEDTAVYYCARETWNHLFDYWGLGTLVTVSS VL: ALTQPASVSANPGETVKIACSGGDYYSYYYGWYQQKAPGSALVTVIYSDDKRPSDIPSRFSGSASGSTATLTITGVRAEDEAVYYCGGYDYSTYANAFGAGTTLTVL							0.876	0.000241	276000	1.34	0.000618	462000	0.0588	3.31e-05	563000	0.64	0.000479	749000
AB66c (antibody, mouse IgG2a, V domains shown, Full-length mouse IgG2a) VH: DVQLVESGGGVVRPGESLRLSCAASGFTFSSYAMSWVRQAPGKGLEWLAGISAGGSDTYYIDSVKGRFTISRDNPKNSLYLQMSSLTAEDTAVYYCARETWNHLFDYWGLGTLVTVSS VL: ALTQPASVSANPGETVKITCSGGDYYSTYYAWYQQKSPGSAPVTVIHSDDKRPSDIPSRFSGSASGSAATLIITGVRVEDEAVYYCGGYDGRTYINTFGAGTTLTVL							5.8	0.000619	107000	3.41	0.000762	224000	0.0955	1.98e-05	207000	0.564	0.000232	412000
AB25c (antibody, mouse IgG2a, V domains shown, Full-length mouse IgG2a) VH: DVQLVESGGGVVRPGESLRLSCEASGFTFSSNAMSWVRQAPGKGLEWVAGISSGSDTYYGDSVKGRLTISRDNSKNILYLQMNSLTAEDTAVYYCARETWNHLFDYWGLGTLVTVSS VL: ALTQPASVSANPGETVEITCSGGSYSSYYYAWYQQKSPGSAPVTLIYSDDKRPSNIPSRFSGSASGSTATLTITGVRAEDEAVYFCGGYDQSSYTNPFGAGTTLTVL							2.81	0.000399	142000	9.64	0.00292	303000	0.0587	2.07e-05	352000	3.9	0.00143	366000
AB27c (antibody, mouse IgG2a, V domains shown, Full-length mouse IgG2a) VH: DVQLVESGGGVVRPGESLRLSCAVSGFRFSSYAMSWVRQAPGKGLEWVSGISSGGDTYYVDSVKGRFTISRDNSKNTLYLQVNSLTAEDTAIYYCARETWNHLFDYWGLGTLVTVSS VL: ALTQPASVSADLGETVKITCSGGDSSSHYYGWYQQKSPGSAPVTVIYSDDERPSDIPSRFSGSASGSTATLTITGVRVEDEAIYYCGAYDGSTYANTFGAGTTLTVL							9.49	0.0014	147000	15	0.00226	150000	0.487	0.000101	207000	3.42	0.00101	296000
AB3c (antibody, mouse IgG2a, V domains shown, Full-length mouse IgG2a) VH: AVTLDESGGGLQTPGGALSLVCKASGFIFSDYGMNWVRQAPGKGLEFVAQITSGSRTYYGAAVKGRATISRDNRQSTVKLQLNNLRAEDTGIYFCARDFGSGVGSIDAWGNGTEVIVSS VL: ALTQPASVSANLGGTVKITCSGSRGRYGWYQQRSPGSAPVTVIYRDNQRPSNIPSRFSSSTSGSTSTLTITGVQADDESVYFCGSYDGSIDIFGAGTTLTVL							15	0.00619	412000	5.31	0.00412	776000	22	0.0118	534000	1.43	0.00143	999000
